What all share (test): mass photometry; (N8-)CRL2^FEM1B wild type or mutant alone; 2 µL of 10 nM protein added to 18 μL of 50 mM HEPES pH 7.5, 150 mM NaCl
Test [1] has as its target CRL2^FEM1B complex with FEM1B^F549R, unneddylated (human) (UniProt Q13617).
The target in test [2] is CRL2^FEM1B complex with FEM1B^F549S, unneddylated (human) (UniProt Q13617).
The target in test [3] is CRL2^FEM1B complex with FEM1B^F549T, unneddylated (human) (UniProt Q13617).

Broadly, the stoichiometry N is the number of molecules, sites or subunits per partner or assembly. Turning to “CRL2^FEM1B complex with FEM1B^F549R, unneddylated (from UniProt Q13617 1-745; P62877 1-108; Q15370 1-104; Q15369 17-112; Q9UK73 1-627)”, the stoichiometry N in test [1] was 2. In the case of “CRL2^FEM1B complex with FEM1B^F549S, unneddylated (from UniProt Q13617 1-745; P62877 1-108; Q15370 1-104; Q15369 17-112; Q9UK73 1-627)”, the stoichiometry N in test [2] was 2. Turning to “CRL2^FEM1B complex with FEM1B^F549T, unneddylated (from UniProt Q13617 1-745; P62877 1-108; Q15370 1-104; Q15369 17-112; Q9UK73 1-627)”, the stoichiometry N in test [3] came to 2.

For the origin of these results see PMC10943247.
